Experiments:
Test in all cases: immobilized peptide pulldown, SILAC LC-MS/MS
Details in all cases: reference: unphosphorylated peptide; sites Y595
PLCγ1 = PLCγ1 (UniProt P19174)
SLP-76 = SLP-76 (UniProt Q13094)
Nck2 = Nck2 (UniProt O43639)
Nck1 = Nck1 (UniProt P16333)

Measured: fold change

ADAP 586-600 (from UniProt O15117) pY595 peptide
stronger: all assays above
